Experimental data as given in PMC12292641.

Molecular target: PpbHLH1 (Phalaenopsis pulcherrima)

- dual-luciferase assay in tobacco leaves: PpANS promoter activity with PpMYB1 and PpbHLH1 co-expressed, against PpMYB1 alone: 4.7 fold
Substance: PpMYB1 (natural protein)
